This is an account of results in publication PMC7699480.

The target of test [1] is nimotuzumab-SpyTag (human (hG1 in the plasmid's name)). Description: electrophoresis on a bioanalyzer after covalent ligation; ∆N-SpyCatcher-DFO reacted with IgG-SpyTag at molar ratios 0:1, 1:4, 1:2, 1:1 and 2:1; 1 h, PBS, room temperature; products analysed under reducing conditions; read-out is the share of heavy chain shifted from ~64 kDa to ~81 kDa.
The target of test [2] is control-IgG-SpyTag (human (hG1 in the plasmid's name)). The description is as above.
For test [3], the target named is nimotuzumab-SpyTag (human (hG1 in the plasmid's name)). Description: electrophoresis on a bioanalyzer after covalent ligation; nimotuzumab-SpyTag (10 µM) ligated with ∆N-SpyCatcher-DFO (20 µM), 1:1 SpyTag:SpyCatcher; molecular weight of the whole conjugate.
The target of test [4] is IgG-SpyTag. Briefly: electrophoresis on a bioanalyzer after covalent ligation; time course at 1:1 molar ratio; IgG-SpyTag 10 µM; ∆N-SpyCatcher-DFO kept at RT or heated for 1 h beforehand; reaction stopped by 10-fold dilution and storage at −80 °C; read-out is the share of heavy chain converted.

Chain of nimotuzumab-SpyTag (human (hG1 in the plasmid's name)) (heavy, as listed by the source, chain 1 of 2): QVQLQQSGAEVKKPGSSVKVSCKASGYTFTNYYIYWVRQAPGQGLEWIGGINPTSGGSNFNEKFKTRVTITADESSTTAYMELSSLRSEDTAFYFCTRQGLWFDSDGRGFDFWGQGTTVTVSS
Chain of nimotuzumab-SpyTag (human (hG1 in the plasmid's name)) (light, as listed by the source, chain 2 of 2): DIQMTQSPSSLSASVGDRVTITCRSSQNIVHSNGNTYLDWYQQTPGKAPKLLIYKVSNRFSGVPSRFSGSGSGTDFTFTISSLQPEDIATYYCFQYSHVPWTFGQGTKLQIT

A word on the stoichiometry N: it is the number of molecules, sites or subunits per partner or assembly. With ∆N-SpyCatcher-DFO (designed binder), in test [1], the percent of heavy chain conjugated (SpyCatcher:SpyTag 1:1) stood at 99%, the percent of heavy chain conjugated (SpyCatcher:SpyTag 1:2) turned out to be 50% and the percent of heavy chain conjugated (SpyCatcher:SpyTag 1:4) was found to be 25%. In test [2], the percent of heavy chain conjugated (SpyCatcher:SpyTag 1:1) was found to be 99%, the percent of heavy chain conjugated (SpyCatcher:SpyTag 1:2) is 50% and the percent of heavy chain conjugated (SpyCatcher:SpyTag 1:4) turned out to be 25%. Moreover, the stoichiometry N in test [3] came out at 2. In test [4], the percent of heavy chain converted (1 min) worked out at 35%, the percent of heavy chain converted (15 min) was 94% and the percent of heavy chain converted (stopped reaction) came out at 13%.
